Results taken from patent US20220088148A1 (HANMI PHARM, published 2022).
Bridges are numbered along the chain shown (N, C = ends). Where no end group is shown, it is not given here. [ ]: non-standard residue; d: D form. The star is where a group is joined. Acetyl(2-(4-imidazolyl)) = O=C(Cc1c[nH]cn1)*; Aib = CC(C)(N)C(=O)O

T1: human GIP receptor (human, UniProt P48546 22-466)
T1 sequence (looked up): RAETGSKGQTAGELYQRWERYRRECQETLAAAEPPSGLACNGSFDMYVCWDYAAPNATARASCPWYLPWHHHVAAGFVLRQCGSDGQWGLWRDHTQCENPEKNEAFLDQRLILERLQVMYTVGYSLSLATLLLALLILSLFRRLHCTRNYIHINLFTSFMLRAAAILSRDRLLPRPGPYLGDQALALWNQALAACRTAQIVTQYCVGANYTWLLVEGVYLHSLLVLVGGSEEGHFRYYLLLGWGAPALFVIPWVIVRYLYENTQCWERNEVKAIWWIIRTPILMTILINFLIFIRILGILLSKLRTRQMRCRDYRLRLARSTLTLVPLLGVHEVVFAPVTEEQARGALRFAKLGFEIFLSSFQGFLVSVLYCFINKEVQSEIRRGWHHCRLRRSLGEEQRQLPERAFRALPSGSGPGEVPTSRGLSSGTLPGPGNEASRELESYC


Tests used:
Experiment in all cases: cell-based or functional assay
human GLP-1 receptor = human GLP-1 receptor (human, UniProt P43220 24-463)
human GCG receptor = human GCG receptor (human, UniProt P47871 26-477)
human GIP receptor = target: T1, human GIP receptor

Chain of human GCG receptor (P47871 26-477): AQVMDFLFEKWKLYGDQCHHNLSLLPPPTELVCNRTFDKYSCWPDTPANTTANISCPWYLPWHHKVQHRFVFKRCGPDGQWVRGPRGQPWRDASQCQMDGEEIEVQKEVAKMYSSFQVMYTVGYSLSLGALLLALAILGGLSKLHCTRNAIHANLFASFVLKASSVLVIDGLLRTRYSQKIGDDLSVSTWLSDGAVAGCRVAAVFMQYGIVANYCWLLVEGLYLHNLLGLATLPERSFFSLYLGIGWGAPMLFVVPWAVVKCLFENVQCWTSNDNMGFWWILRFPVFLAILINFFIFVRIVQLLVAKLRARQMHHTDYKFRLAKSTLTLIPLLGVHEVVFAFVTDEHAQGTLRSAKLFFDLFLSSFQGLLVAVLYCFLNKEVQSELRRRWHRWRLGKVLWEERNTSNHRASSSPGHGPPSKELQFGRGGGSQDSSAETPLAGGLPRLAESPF

Row | Binder | In vitro activity (%) vs. GLP-1, cAMP EC50 (human GLP-1 receptor) [%] | In vitro activity (%) vs. Glucagon, cAMP EC50 (human GCG receptor) [%] | In vitro activity (%) vs. GIP, cAMP EC50 (human GIP receptor) [%]
1 | H[Aib]QGTFTSDYSKYLDEKRQKEFVQWLLNTKC (bridge 16-20; ends not checked) [triple agonist of SEQ ID NO: 58] | 39.1 | 2.6 | 0.2
2 | H[Aib]QGTFTSDYSKYLDEKRQKEFVQWLLDTC (bridge 16-20; ends not checked) [triple agonist of SEQ ID NO: 52] | 44.1 | 7.5 | 0.3
3 | H[Aib]QGTFTSDYSKYLDEKRQKEFVQWLLNTC (bridge 16-20; ends not checked) [triple agonist of SEQ ID NO: 51] | 14.4 | 2 | 0.1
4 | [Acetyl(2-(4-imidazolyl))][Aib]QGTFTSDYSIAMDEIACKDFVNWLLNTK (bridge 16-20; ends not checked) [triple agonist of SEQ ID NO: 61] | 59.8 | < 0.1 | 2.8
5 | H[Aib]QGTFTSDYSKYLDEKRQKEFVNWLLAQKC (bridge 16-20) [triple agonist of SEQ ID NO: 34] | 19.1 | 0.92 | 0.6
6 | H[Aib]QGTFTSDVSKYLDGQAAKEFVAWLLKGC (ends and bridges not checked) [triple agonist of SEQ ID NO: 7] | 13.7 | < 0.1 | < 0.1
7 | H[Aib]QGTFTSDYSKCLDEKRAKEFVQWLLDHHPSSGQPPPS (bridge 16-20; ends not checked) [triple agonist of SEQ ID NO: 65] | 95.4 | 25.2 | 11.6
8 | HGQGTFTSDCSKQLDGQAAQEFVAWLLAGGPSSGAPPPS [triple agonist of SEQ ID NO: 44] | 1.3 | < 0.1 | < 0.1
9 | HGQGTFTSDCSKYLDGQRAQDFVNWLLAGGPSSGAPPPS [triple agonist of SEQ ID NO: 48] | 1.5 | < 0.1 | < 0.1
10 | HGQGTFTSDCSKYLDGQRAQEFVAWLLAGGPSSGAPPPS [triple agonist of SEQ ID NO: 47] | 2.4 | < 0.1 | < 0.1
11 | HGQGTFTSDCSKYMDGQAAQDFVAWLLAGGPSSGAPPPS [triple agonist of SEQ ID NO: 45] | 6.6 | < 0.1 | < 0.1
12 | HGQGTFTSDCSKYLDEQHAQEFVAWLLAGGPSSGAPPPS [triple agonist of SEQ ID NO: 46] | 1.4 | < 0.1 | < 0.1
13 | Y[Aib]QGTFTSDYSKCLDERAAKEFVQWLLDHHPSSGQPPPS (bridge 16-20; ends not checked) [triple agonist of SEQ ID NO: 69] | 24.3 | 9.6 | 62.8
14 | H[Aib]QGTFTSDVSSYLDGQAAKEFIAWLVKGC [triple agonist of SEQ ID NO: 1] | 3.2 | < 0.1 | < 0.1
15 | H[Aib]QGTFTSDVSSYLLGQQQKEFIAWLVKGC [triple agonist of SEQ ID NO: 4] | 8.5 | < 0.1 | < 0.1
16 | Y[Aib]QGTFTSDYSKYLDECRAKDFVQWLLDHHPSSGQPPPS (bridge 16-20; ends not checked) [triple agonist of SEQ ID NO: 66] | 15.8 | 172 | 17.2

Row | Binder | In vitro activity (%) vs. GLP-1, cAMP EC50 (human GLP-1 receptor) [%] | In vitro activity (%) vs. Glucagon, cAMP EC50 (human GCG receptor) [%] | In vitro activity (%) vs. GIP, cAMP EC50 (human GIP receptor) [%]
17 | Y[Aib]QGTFTSDYSKYLDEKRAKEFVQWLLDHHPSSGQPPPSC (bridge 16-20) [triple agonist of SEQ ID NO: 42] | 33.9 | 206 | 7.8
18 | H[Aib]QGTFTSDYSIAMDEIHQKDFVNWLLNTKC (bridge 16-20) [triple agonist of SEQ ID NO: 35] | 7.5 | < 0.1 | 1.3
19 | [Acetyl(2-(4-imidazolyl))][Aib]QGTFTSDYSIAMDEKHCKDFVNWLLNTK (bridge 16-20; ends not checked) [triple agonist of SEQ ID NO: 60] | 106 | < 0.1 | 8.2
20 | Y[Aib]QGTFTSDYSKYLDECAAKEFVQWLLDHHPSSGQPPPS (bridge 16-20; ends not checked) [triple agonist of SEQ ID NO: 64] | 64.6 | 60.1 | 92.9
21 | [Acetyl(2-(4-imidazolyl))][Aib]QGTFTSDYSICMDEKHQKDFVNWLLNTK (bridge 16-20; ends not checked) [triple agonist of SEQ ID NO: 59] | 40.3 | < 0.1 | 4
22 | H[Aib]QGTFTSDVSSYLLGQQQKEFIAWLVKGGGPSSGAPPPSC [triple agonist of SEQ ID NO: 5] | 42.1 | < 0.1 | < 0.1
23 | H[Aib]EGTFTSDYSIAMDEIHQKDFVNWLLAQC (bridge 16-20) [triple agonist of SEQ ID NO: 53] | 161 | 8.4 | 1.3
24 | H[Aib]QGTFTSDYSIAMDEIHQKDFVNWLLAQC (bridge 16-20) [triple agonist of SEQ ID NO: 55] | 27.1 | 0.7 | 2.4
25 | H[Aib]QGTFTSDYSKYLDEKRAKEFVQWLLDHHPSSGQPPPSC (bridge 16-20; ends not checked) [triple agonist of SEQ ID NO: 50] | 67.4 | 50.5 | 2.7
26 | Y[Aib]QGTFTSDYSKYLDEKRAKEFVQWLLDHHCSSGQPPPS (bridge 16-20) [triple agonist of SEQ ID NO: 43] | 12.6 | 88.4 | 3.7
27 | Y[Aib]QGTFTSDYSKCLDEKAAKEFVQWLLDHHPSSGQPPPS (bridge 16-20; ends not checked) [triple agonist of SEQ ID NO: 68] | 27.9 | 8.8 | 107
28 | H[Aib]EGTFTSDYSIAMDEIHQKDFVDWLLAEC (bridge 16-20; ends not checked) [triple agonist of SEQ ID NO: 54] | 30.6 | 1.4 | 0.1
29 | H[Aib]QGTFTSDVSSYLDGQAAKEFVAWLLKGC (ends and bridges not checked) [triple agonist of SEQ ID NO: 6] | 17 | < 0.1 | < 0.1
30 | {Acetyl(2-(4-imidazolyl))}-[Aib]QGTFTSDYSICMDEIHQKDFVNWLLNTK (bridge 15-19) [triple agonist of SEQ ID NO: 49] | 29.8 | < 0.1 | 3.3
31 | H[Aib]QGTFTSDYSIAMDEIHQKDFVNWLLNTC (bridge 16-20; ends not checked) [triple agonist of SEQ ID NO: 57] | 11.7 | < 0.1 | 0.3
